For one substance, EC50 results are on record in patent publication US20210179716A1.

A value given as a limit tells only on which side of the number the result lay.

Experiment [1] concerns the target human CD47 on the cell surface (human). Put plainly: cell binding to HT1080 tumor cells in a 1:10 mixture with red blood cells.
Experiment [2] shares this target. Put plainly: cell binding to red blood cells in a 1:10 mixture of HT1080 cells and red blood cells.

As a reminder, the EC50 is the concentration that produces a half-maximal response. For the substance “monospecific anti-CD47 mAb 5F9 (antibody)”, the EC50 in experiment [1] and in experiment [2] was less than 0.1 nM each time.
